# Results: the Human Domainome abundance scans (Beltran et al. 2025)
# ± gives the uncertainty stated by the source.
# B1: Membrane-associated guanylate kinase, WW and PDZ domain-containing protein 2, residues 601 to 682; numbered along this chain, Q86UL8 (parent)
# chain: AELMTLTIVKGAQGFGFTIADSPTGQRVKQILDIQGCPGLCEGDLIVEINQQNVQNLSHTEVVDILKDCPIGSETSLIIHRG
# Variants of: B1
# Assay: abundance fitness (aPCA) (normalised: wild type 0, dead -1); higher = more abundant; growth selection in yeast, the domain comes from the species named
# Conditions: Homo sapiens
row,Variant,abundance fitness
1,V28C,-0.077 ± 0.14
2,I31G,-0.11 ± 0.084
3,A1E,-0.024 ± 0.11
4,I46M,0.164 ± 0.14
5,V47F,0.185 ± 0.38
6,V9L,-0.139 ± 0.039
7,S22A,0.075 ± 0.1
8,A12E,-0.047 ± 0.041
9,Q52E,-0.016 ± 0.069
10,T7I,-0.013 ± 0.064
11,N56C,-0.326 ± 0.22
12,H59G,-0.018 ± 0.068
13,V9I,-0.087 ± 0.08
14,K10E,-0.662 ± 0.053
15,F15C,-0.111 ± 0.042
16,V47K,-0.195 ± 0.16
17,I71E,-0.033 ± 0.11
18,L32V,0.052 ± 0.12
19,G25C,-0.17 ± 0.08
20,T75E,-0.072 ± 0.11
21,S22V,-0.063 ± 0.13
22,G36V,-0.009 ± 0.1
23,P23C,0.021 ± 0.084
24,I34E,-0.045 ± 0.07

row,Variant,abundance fitness
1,I34F,-0.066 ± 0.17
2,V63D,0.145 ± 0.41
3,E2F,-0.113 ± 0.059
4,V62M,-0.181 ± 0.12
5,E48Y,0.006 ± 0.26
6,T5A,-0.098 ± 0.043
7,P70L,-0.085 ± 0.11
8,C37F,0.204 ± 0.49
9,V63M,0.041 ± 0.11
10,V62E,-0.999 ± 0.49
11,I34W,-0.101 ± 0.063
12,N53T,-0.042 ± 0.035
13,H80L,-0.135 ± 0.079
14,T24N,-0.004 ± 0.099
15,K67I,-0.324 ± 0.13
16,I19G,-1.31 ± 0.28
17,A12K,-0.036 ± 0.059
18,K67H,-0.23 ± 0.21
19,E2T,-0.034 ± 0.038
20,Q35Y,-0.066 ± 0.24
21,G39A,-0.052 ± 0.1
22,Q51E,-0.013 ± 0.063
23,D64C,-0.238 ± 0.18
24,V54D,-0.964 ± 0.14

row,Variant,abundance fitness
1,G25P,-0.371 ± 0.075
2,P70G,-0.185 ± 0.076
3,M4R,-0.157 ± 0.026
4,T7P,-0.04 ± 0.046
5,C41F,0.016 ± 0.088
6,Q30D,-0.022 ± 0.2
7,P38R,-0.13 ± 0.098
8,F15Q,-0.062 ± 0.039
9,D21L,0.084 ± 0.11
10,G36S,-0.158 ± 0.081
11,A12S,-0.046 ± 0.039
12,L40S,-0.616 ± 0.21
13,D44C,-0.989 ± 0.28
14,L45A,-0.088 ± 0.43
15,I65A,-0.048 ± 0.037
16,V47N,-0.291 ± 0.39
17,I34L,0.007 ± 0.064
18,T5D,-0.024 ± 0.075
19,D21W,-0.111 ± 0.065
20,K67V,-0.112 ± 0.14
21,D21F,-0.208 ± 0.33
22,L32W,-0.158 ± 0.22
23,T24Y,-0.021 ± 0.075
24,S73G,0.095 ± 0.081

row,Variant,abundance fitness
1,H59K,-0.132 ± 0.092
2,S73V,-0.025 ± 0.067
3,G72Q,0.003 ± 0.17
4,Q13H,-0.161 ± 0.07
5,V9S,-0.102 ± 0.041
6,F15N,-0.144 ± 0.049
7,Q35P,-0.243 ± 0.16
8,G16M,-0.007 ± 0.039
9,C37I,-0.173 ± 0.27
10,L57V,-0.029 ± 0.067
11,G16Q,-0.085 ± 0.04
12,K29L,-0.212 ± 0.099
13,Q26V,-0.025 ± 0.042
14,I19E,-0.872 ± 0.4
15,Q13T,-0.038 ± 0.036
16,H80A,-0.049 ± 0.077
17,T60N,0.054 ± 0.11
18,T24W,-0.076 ± 0.06
19,Q51T,0.005 ± 0.039
20,C69P,-0.421 ± 0.22
21,Q26H,-0.124 ± 0.14
22,N56Q,-0.099 ± 0.12
23,D68H,0.222 ± 0.28
24,I8R,-0.397 ± 0.033

row,Variant,abundance fitness
1,Q13S,-0.027 ± 0.033
2,S76L,-0.061 ± 0.077
3,P70W,-0.087 ± 0.12
4,I65H,-0.242 ± 0.093
5,I8G,-0.084 ± 0.027
6,L57W,-0.13 ± 0.11
7,Q52F,-0.054 ± 0.045
8,S58V,-0.093 ± 0.079
9,N50D,-0.084 ± 0.23
10,L57H,-0.008 ± 0.14
11,T7R,-0.052 ± 0.032
12,G25T,-0.318 ± 0.062
13,G82W,-0.184 ± 0.15
14,P23T,-0.058 ± 0.053
15,L3N,0.056 ± 0.053
16,L3G,-0.018 ± 0.027
17,N50L,-0.219 ± 0.1
18,S76R,-0.021 ± 0.054
19,V54E,-0.906 ± 0.16
20,I79S,-0.314 ± 0.11
21,Q35R,0.021 ± 0.12
22,G72M,0.059 ± 0.089
23,S58W,-0.021 ± 0.12
24,C69E,-0.086 ± 0.094

row,Variant,abundance fitness
1,I34K,-0.007 ± 0.076
2,V63C,-0.192 ± 0.15
3,G11D,0.01 ± 0.061
4,L77S,-0.583 ± 0.15
5,I49M,-0.195 ± 0.13
6,T18P,-1.1 ± 0.12
7,T60L,-0.011 ± 0.071
8,F15S,-0.143 ± 0.031
9,T18K,0.044 ± 0.06
10,D44N,-0.21 ± 0.1
11,P70S,-0.001 ± 0.12
12,L77I,0.24 ± 0.29
13,S73K,-0.044 ± 0.092
14,L6D,-0.366 ± 0.082
15,L6A,-0.124 ± 0.036
16,Q13P,-0.001 ± 0.04
17,P38A,-0.096 ± 0.12
18,H80S,0.014 ± 0.075
19,A1R,0.216 ± 0.31
20,G43L,0 ± 0.11
21,E2V,-0.077 ± 0.038
22,K67S,0.004 ± 0.083
23,P38L,0.037 ± 0.098
24,I78P,-1.13 ± 0.49

row,Variant,abundance fitness
1,A1F,-0.589 ± 0.47
2,T18Y,-0.032 ± 0.093
3,I49W,-0.241 ± 0.093
4,Q52V,-0.039 ± 0.039
5,G82V,-0.188 ± 0.16
6,G43V,-0.761 ± 0.24
7,I46L,0.236 ± 0.32
8,V54Q,-0.688 ± 0.064
9,D44A,-0.263 ± 0.11
10,E2Q,-0.066 ± 0.042
11,G25A,-0.046 ± 0.041
12,N56M,-0.06 ± 0.11
13,T7M,-0.083 ± 0.059
14,I8H,-0.113 ± 0.078
15,K67M,-0.003 ± 0.1
16,G36L,-0.261 ± 0.22
17,E42G,-0.114 ± 0.052
18,L6E,-0.193 ± 0.043
19,N50M,-0.108 ± 0.1
20,G36P,-0.057 ± 0.15
21,Q30M,0.098 ± 0.12
22,G43A,-0.086 ± 0.097
23,H59P,-0.094 ± 0.083
